# Data reported in patent US6127119, “Nucleic acid ligands of tissue target” (NeXstar Pharmaceuticals, Inc.).
# Numbering of substitutions follows the chain as printed.
# B1: FC69 (ssRNA)
# RNA: GGGAGAUAAGAAUAAACGCUCAAACAAAUGUGCGCCCUUGGACGAAGUUAACUCGGACGGUUCUUCGACAGGAGGCUCACAACAGGC
# modifications: 2'-F pyrimidines
# B2: FCN50 (ssRNA)
# RNA: GGGAGAUAAGAAUAAACGCUCAAGAAUGGAGCCAGGAAAGACAGCGAUGUCUCGGACGAUGAGUUCGACAGGAGGCUCACAACAGGC
# modifications: 2'-F pyrimidines
# B3: FCN36 (ssRNA)
# RNA: GGGAGAUAAGAAUAAACGCUCAAAGCAGAUGGUGCUGAGGUAUCAUGAAGACGCUGACGCUUAUUCGACAGGAGGCUCACAACAGGC
# modifications: 2'-F pyrimidines
# B4: FCN48 (ssRNA)
# RNA: GGGAGAUAAGAAUAAACGCUCAAGAUAUACUAACUUUGUUUGAAAGCCAAAAGUAUUAAUGCGUUCGACAGGAGGCUCACAACAGGC
# modifications: 2'-F pyrimidines
# B5: FCN31 (ssRNA)
# RNA: GGGAGAUAAGAAUAAACGCUCAAUCUGUUGGUUCAAAGACUUGCUAAGGGGUCGAAGCACCCUUUCGACAGGAGGCUCACAACAGGC
# modifications: 2'-F pyrimidines
# B6: FCN24 (ssRNA)
# RNA: GGGAGAUAAGAAUAAACGCUCAAAUGAGUAGACCGAGGAAGCACCCGGCUCUCAAAUGAGUGAUUCGACAGGAGGCUCACAACAGGC
# modifications: 2'-F pyrimidines
# B7: FCN64 (ssRNA)
# RNA: B6 RNA with G60C
# modifications: 2'-F pyrimidines
# B8: FCN49 (ssRNA)
# RNA: B2 RNA with G35A
# modifications: 2'-F pyrimidines
# B9: FCN58 (ssRNA)
# RNA: B2 RNA with A25G, G35A
# modifications: 2'-F pyrimidines
# B10: FC34 (ssRNA)
# RNA: GGGAGAUAAGAAUAAACGCUCAAAAGGCCGAACAACGAAGUUUGAUUCAGGUACUCAGCGUUCUUCGACAGGAGGCUCACAACAGGC
# modifications: 2'-F pyrimidines
# B11: FCN27 (ssRNA)
# RNA: GGGAGAUAAGAAUAAACGCUCAAAAAGUCGUGUGCGAGAGGCUCAGAUUUAAUGCGGAGGAUUCGACAGGAGGCUCACAACAGGC
# modifications: 2'-F pyrimidines
# B12: FCN6 (ssRNA)
# RNA: GGGAGAUAAGAAUAAACGCUCAACAACGAUUAUCUUUUCGGCCGUGAAACCCAAACUGACGCCUUCGACAGGAGGCUCACAACAGGC
# modifications: 2'-F pyrimidines
# B13: FCN25 (ssRNA)
# RNA: B4 RNA with G38C
# modifications: 2'-F pyrimidines
# B14: FCN21 (ssRNA)
# RNA: GGGAGAUAAGAAUAAACGCUCAAAGUUUGGAUUCGGCAGGUGCUGAGACUUUGAUAGCCACUAUUCGACAGGAGGCUCACAACAGGC
# modifications: 2'-F pyrimidines
# B15: FCN56 (ssRNA)
# RNA: GGGAGAUAAGAAUAAACGCUCAACGGCUCGAUGCUAGCUGGGACGGCUCAUUGAGACUGGUUGUUCGACAGGAGGCUCACAACAGGC
# modifications: 2'-F pyrimidines
# B16: FCN59 (ssRNA)
# RNA: GGGAGAUAAGAAUAAACGCUCAAAUGAUGCUCCUGAAGUAAUCACCAGGACAUCCUCGGCAUUUCGACAGGAGGCUCACAACAGGC
# modifications: 2'-F pyrimidines
# B17: FCN18 (ssRNA)
# RNA: GGGAGAUAAGAAUAAACGCUCAAAUGAACGACCGCGGGCAGUCGCGUUCAAAUGAGUGGUUUUUUCGACAGGAGGCUCACAACAGGC
# modifications: 2'-F pyrimidines
# B18: FCN54 (ssRNA)
# RNA: GGGAGAUAAGAAUAAACGCUCAACUGGGCUCAUCCGGCGAAUGAUGCAAGGAAGAUUUCACAUUUCGACAGGAGGCUCACAACAGGC
# modifications: 2'-F pyrimidines
# B19: FCN52 (ssRNA)
# RNA: GGGAGAUAAGAAUAAACGCUCAAAGCCGAGCUAAUCCCGAAAGUGACCCGGAACGACGCGGCAUUCGACAGGAGGCUCACAACAGGC
# modifications: 2'-F pyrimidines
# B20: FCN69 (ssRNA)
# RNA: GGGAGAUAAGAAUAAACGCUCAAGAUUGACACGCACUCCAAUGGCUCUGAAGUGUUCGUGUGCUUCGACAGGAGGCUCACAACAGGC
# modifications: 2'-F pyrimidines
# B21: FCN12 (ssRNA)
# RNA: GGGAGAUAAGAAUAAACGCUCAAAGAGAGGAACUGCGAUUCAGACCAAAACGGAAAUGGCUGUUUCGACAGGAGGCUCACAACAGGC
# modifications: 2'-F pyrimidines
# B22: FCN13 (ssRNA)
# RNA: GGGAGAUAAGAAUAAACGCUCAACGUGAUGACAGCUCGGACGGCUCAUUGCGCGGAGUAGCUAUUCGACAGGAGGCUCACAACAGGC
# modifications: 2'-F pyrimidines
# B23: FC9 (ssRNA)
# RNA: GGGAGAUAAGAAUAAACGCUCAAGCAAUCUCGGACUAGACCAACGACCUUCGUUUGACGCUCAUUCGACAGGAGGCUCACAACAGGC
# modifications: 2'-F pyrimidines
# B24: FCN9 (ssRNA)
# RNA: GGGAGAUAAGAAUAAACGCUCAACGUUGAAAUCGCUCCUCAGUGUGAGUUGAAUCAGCUGACCUUCGACAGGAGGCUCACAACAGGC
# modifications: 2'-F pyrimidines
# B25: FCN22 (ssRNA)
# RNA: GGGAGAUAAGAAUAAACGCUCAAGUGAGAAAUGUCGGGGGCGAUGACUUGGACGGUCCACCGUUCGACAGGAGGCUCACAACAGGC
# modifications: 2'-F pyrimidines
# B26: FC53 (ssRNA)
# RNA: GGGAGAUAAGAAUAAACGCUCAAGCGGGGAGCUCCUCGAGAAACUGAGUUCAACUUCCCAGGUUUCGACAGGAGGCUCACAACAGGC
# modifications: 2'-F pyrimidines
# B27: FCN65 (ssRNA)
# RNA: GGGAGAUAAGAAUAAACGCUCAAAGCGCUAGAUGGACGAGAGACUUUUAAGUAGCAAGCGGUAUUCGACAGGAGGCUCACAACAGGC
# modifications: 2'-F pyrimidines
# B28: FCN26 (ssRNA)
# RNA: GGGAGAUAAGAAUAAACGCUCAAUCCAAGGACCAAACGGGUGUUCGGCAGUGGACUUUAGCAAUUCGACAGGAGGCUCACAACAGGC
# modifications: 2'-F pyrimidines
# B29: FCN28 (ssRNA)
# RNA: GGGAGAUAAGAAUAAACGCUCAAUGGGCUACAUGUGAGUACACCAGCGUGAGAGUUCUUAGGUUCGACAGGAGGCUCACAACAGGC
# modifications: 2'-F pyrimidines
# B30: FCN61 (ssRNA)
# RNA: B23 RNA with U36G, C41U, C62U
# modifications: 2'-F pyrimidines
# B31: FCN57 (ssRNA)
# RNA: B23 RNA with G24A, C41U, C62U
# modifications: 2'-F pyrimidines
# B32: FCN29 (ssRNA)
# RNA: GGGAGAUAAGAAUAAACGCUCAACUGUGCAGUAACUGCGGAUGAGACCAACCGGAUGGCUCAACUUCGACAGGAGGCUCACAACAGGC
# modifications: 2'-F pyrimidines
# B33: FC14 (ssRNA)
# RNA: GGGAGAUAAGAAUAAACGCUCAAGUGUUGGAGCUCUUGAUUGGAAAAGUAGAACAAAUCGAAAUUCGACAGGAGGCUCACAACAGGC
# modifications: 2'-F pyrimidines
# B34: FC70 (ssRNA)
# RNA: B33 RNA with A53G, U58A
# modifications: 2'-F pyrimidines
# B35: FC30 (ssRNA)
# RNA: B33 RNA with G48U, A53G
# modifications: 2'-F pyrimidines
# B36: FC74 (ssRNA)
# RNA: B33 RNA with A53G
# modifications: 2'-F pyrimidines
# B37: FC10 (ssRNA)
# RNA: GGGAGAUAAGAAUAAACGCUCAACAGACUCAGAGCGCCGUGAGCUUCUGAAGCAAUCGCAGGUUUCGACAGGAGGCUCACAACAGGC
# modifications: 2'-F pyrimidines
# B38: FCN8 (ssRNA)
# RNA: GGGAGAUAAGAAUAAACGCUCAAUAGCAAGUCCCACAUCCCAGACGGGCUAAAAAGAGGUGGAUUCGACAGGAGGCUCACAACAGGC
# modifications: 2'-F pyrimidines
# Molecular target: Fibrin (human plasma clot) (Homo sapiens, UniProt P02671-2;P02675;P02679-2 P02671-2:36-644,P02675:45-491,P02679-2:27-437)
# Assay: competition; homogenized plasma clot, Scatchard high-affinity component
# Conditions: tags: clot from recalcified plasma, complex target; chain copies: 2
# Description: The two best binders in the PE model which had the lowest affinity for fibrinogen were pursued. Both of these clones resided in Motif II. Clone 69 (SEQ ID NO: 55) was analyzed for binding in vitro homogenized clot. By adding a fixed amount of radiolabeled clone 69 (2 nM) to a fixed amount of clot (200 μliters plasma equivalent) with increasing amount of non-radiolabeled ligand, binding could be quantitated. Analyzing data in a Scatchard format yield a two-component curve with high and low affinity binding components. […] These sites were saturable. […] As such it appears that the binding of a specific ligand to clots is specific and stable.
# Sequence of Fibrin (human plasma clot) (P02671 other isoform, or with tags, fused parts or gaps, chain 1 of 3): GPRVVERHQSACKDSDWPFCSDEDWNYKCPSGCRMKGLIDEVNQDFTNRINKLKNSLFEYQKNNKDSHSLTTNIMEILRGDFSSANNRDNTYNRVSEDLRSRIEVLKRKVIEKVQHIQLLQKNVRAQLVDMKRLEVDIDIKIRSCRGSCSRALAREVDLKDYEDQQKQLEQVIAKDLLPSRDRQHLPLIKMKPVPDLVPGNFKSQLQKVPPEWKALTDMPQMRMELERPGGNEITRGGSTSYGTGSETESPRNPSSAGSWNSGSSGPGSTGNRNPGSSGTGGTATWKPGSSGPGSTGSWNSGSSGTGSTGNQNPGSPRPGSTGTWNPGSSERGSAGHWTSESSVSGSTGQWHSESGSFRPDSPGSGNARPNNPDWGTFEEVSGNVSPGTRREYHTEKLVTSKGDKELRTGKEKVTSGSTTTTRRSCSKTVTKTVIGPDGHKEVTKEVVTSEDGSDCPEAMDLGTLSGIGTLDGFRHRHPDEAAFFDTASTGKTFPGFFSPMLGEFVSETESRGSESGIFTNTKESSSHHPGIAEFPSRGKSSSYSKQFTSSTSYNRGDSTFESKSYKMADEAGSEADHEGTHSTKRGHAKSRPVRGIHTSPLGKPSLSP
# Sequence of Fibrin (human plasma clot) (P02675 45-491, chain 2 of 3): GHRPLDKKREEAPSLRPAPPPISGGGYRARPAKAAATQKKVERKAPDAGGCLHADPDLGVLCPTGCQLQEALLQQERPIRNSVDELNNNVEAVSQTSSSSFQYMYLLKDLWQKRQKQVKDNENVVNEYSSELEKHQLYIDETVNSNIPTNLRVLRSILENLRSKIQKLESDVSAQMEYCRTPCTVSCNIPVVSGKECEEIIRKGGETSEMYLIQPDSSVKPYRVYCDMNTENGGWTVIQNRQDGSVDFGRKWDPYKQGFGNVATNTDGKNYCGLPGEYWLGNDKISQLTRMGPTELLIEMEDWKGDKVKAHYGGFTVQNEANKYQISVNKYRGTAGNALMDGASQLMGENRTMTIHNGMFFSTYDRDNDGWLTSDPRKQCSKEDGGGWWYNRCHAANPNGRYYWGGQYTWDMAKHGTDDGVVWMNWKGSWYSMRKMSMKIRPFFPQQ
# Sequence of Fibrin (human plasma clot) (P02679 other isoform, or with tags, fused parts or gaps, chain 3 of 3): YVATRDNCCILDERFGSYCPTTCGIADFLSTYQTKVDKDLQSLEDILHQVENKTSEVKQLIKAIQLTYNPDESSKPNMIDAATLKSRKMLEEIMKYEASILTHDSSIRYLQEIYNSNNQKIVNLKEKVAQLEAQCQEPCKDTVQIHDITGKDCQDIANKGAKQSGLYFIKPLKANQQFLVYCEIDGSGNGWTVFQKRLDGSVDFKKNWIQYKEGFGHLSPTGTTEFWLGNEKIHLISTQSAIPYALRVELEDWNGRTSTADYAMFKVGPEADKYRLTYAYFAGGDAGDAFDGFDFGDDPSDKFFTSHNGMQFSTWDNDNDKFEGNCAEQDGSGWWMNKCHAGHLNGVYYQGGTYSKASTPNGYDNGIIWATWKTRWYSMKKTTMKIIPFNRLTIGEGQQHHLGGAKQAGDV
row,Binder,Kd [nM]
1,B1,14.1

# Molecular target: T1, Fibrinogen (Homo sapiens, UniProt P02671-2;P02675;P02679-2 P02671-2:20-644,P02675:31-491,P02679-2:27-437)
# Assay: filter; moderate fibrinogen affinity
# Conditions: chain copies: 2
# T1 sequence (P02671 other isoform, or with tags, fused parts or gaps, chain 1 of 3): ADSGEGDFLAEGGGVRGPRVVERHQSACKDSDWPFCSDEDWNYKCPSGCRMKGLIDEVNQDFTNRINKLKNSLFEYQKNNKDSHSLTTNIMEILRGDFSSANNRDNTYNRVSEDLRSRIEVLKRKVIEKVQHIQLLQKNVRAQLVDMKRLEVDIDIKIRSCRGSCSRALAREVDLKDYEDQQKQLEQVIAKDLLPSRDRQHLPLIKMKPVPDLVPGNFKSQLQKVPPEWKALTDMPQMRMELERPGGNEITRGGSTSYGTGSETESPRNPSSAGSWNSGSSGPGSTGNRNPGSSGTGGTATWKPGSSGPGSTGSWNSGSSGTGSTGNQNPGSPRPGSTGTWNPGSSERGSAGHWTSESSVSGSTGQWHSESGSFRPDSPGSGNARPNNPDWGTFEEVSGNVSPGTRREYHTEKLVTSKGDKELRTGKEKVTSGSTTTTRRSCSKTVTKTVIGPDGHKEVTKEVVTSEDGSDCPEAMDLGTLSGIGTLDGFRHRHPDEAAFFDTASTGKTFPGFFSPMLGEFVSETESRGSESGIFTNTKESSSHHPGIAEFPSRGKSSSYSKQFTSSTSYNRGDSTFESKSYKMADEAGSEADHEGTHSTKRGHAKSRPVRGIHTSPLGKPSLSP
# T1 sequence (P02675 31-491, chain 2 of 3): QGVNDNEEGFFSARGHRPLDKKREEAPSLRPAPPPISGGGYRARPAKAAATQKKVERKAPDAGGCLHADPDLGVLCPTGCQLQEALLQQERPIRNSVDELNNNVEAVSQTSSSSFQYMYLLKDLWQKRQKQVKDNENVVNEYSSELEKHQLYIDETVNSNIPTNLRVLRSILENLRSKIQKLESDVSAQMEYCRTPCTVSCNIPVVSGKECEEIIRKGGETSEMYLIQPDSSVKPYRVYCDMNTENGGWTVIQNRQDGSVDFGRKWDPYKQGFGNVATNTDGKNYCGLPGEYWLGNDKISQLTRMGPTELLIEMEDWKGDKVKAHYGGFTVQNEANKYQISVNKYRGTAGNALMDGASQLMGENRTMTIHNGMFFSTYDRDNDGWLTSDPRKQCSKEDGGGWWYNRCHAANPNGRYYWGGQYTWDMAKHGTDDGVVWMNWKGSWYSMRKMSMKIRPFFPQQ
# T1 sequence (P02679 other isoform, or with tags, fused parts or gaps, chain 3 of 3): as the sequence (P02679 other isoform, or with tags, fused parts or gaps, chain 3 of 3) above
row,Binder,binding result
1,B2,binds
2,B3,binds
3,B4,binds
4,B5,binds
5,B6,binds
6,B7,binds

# Molecular target: T1, Fibrinogen
# Assay: filter; low class; printed l mM, probably uM
# Conditions: chain copies: 2
row,Binder,Kd [nM]
1,B8,> 1000
2,B9,> 1000
3,B10,> 1000
4,B11,> 1000
5,B12,> 1000
6,B13,> 1000
7,B14,> 1000
8,B15,> 1000
9,B16,> 1000
10,B17,> 1000
11,B18,> 1000
12,B19,> 1000
13,B20,> 1000
14,B21,> 1000
15,B22,> 1000
16,B23,> 1000
17,B24,> 1000
18,B25,> 1000

# Molecular target: T1, Fibrinogen
# Assay: filter; high class; printed l mM, probably uM
# Conditions: chain copies: 2
row,Binder,Kd [nM]
1,B26,< 1000
2,B27,< 1000
3,B28,< 1000
4,B29,< 1000
5,B30,< 1000
6,B31,< 1000
7,B32,< 1000
8,B33,< 1000
9,B34,< 1000
10,B35,< 1000
11,B36,< 1000
12,B37,< 1000

# Molecular target: T1, Fibrinogen
# Assay: filter; low class; printed l mM, probably uM; clone printed FCNB
# Conditions: chain copies: 2
row,Binder,Kd [nM]
1,B38,> 1000
